T1: CEACAM1-his (human)
T1 chain: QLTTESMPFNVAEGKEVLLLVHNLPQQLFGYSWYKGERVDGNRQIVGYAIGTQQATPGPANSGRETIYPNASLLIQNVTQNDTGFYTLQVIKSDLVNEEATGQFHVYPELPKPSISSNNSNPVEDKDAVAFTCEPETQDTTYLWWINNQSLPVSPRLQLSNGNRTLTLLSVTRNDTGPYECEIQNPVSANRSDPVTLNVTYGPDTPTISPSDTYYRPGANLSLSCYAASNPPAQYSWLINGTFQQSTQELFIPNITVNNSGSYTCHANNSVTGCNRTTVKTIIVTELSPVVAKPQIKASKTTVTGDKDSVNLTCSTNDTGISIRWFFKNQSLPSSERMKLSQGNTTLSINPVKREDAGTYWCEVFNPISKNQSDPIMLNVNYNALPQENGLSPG


Target: T1, CEACAM1-his
Assay: BLI

| Kd | Binder |
| --- | --- |
| 5.86 nM | h4D10.G4.H4(N56Q Y100V)L2 (antibody, V domains shown) VH: QVQLVQSGAEVKKPGASVKVSCKASGYTFSSYVIHWVRQAPGQGLEWMGYFNPYNQGTNYNENFKGRVTMTADTSTSTVYMELSSLRSEDTAVYYCARYVYASGSLYFDYWGQGTTVTVSS VL: DIQMTQSPSTLSASVGDRVTITCSASSSVSYMHWYQQKPGKAPKPLIYEISKLASGVPSRFSGSGSGTEFTLTISSLQPDDAATYYCQQWNYPLITFGGGTKVEIK |
| 4.87 nM | h4D10.G4.H4(N56V Y100W)L2 (antibody, V domains shown) VH: QVQLVQSGAEVKKPGASVKVSCKASGYTFSSYVIHWVRQAPGQGLEWMGYFNPYNVGTNYNENFKGRVTMTADTSTSTVYMELSSLRSEDTAVYYCARYWYASGSLYFDYWGQGTTVTVSS VL: DIQMTQSPSTLSASVGDRVTITCSASSSVSYMHWYQQKPGKAPKPLIYEISKLASGVPSRFSGSGSGTEFTLTISSLQPDDAATYYCQQWNYPLITFGGGTKVEIK |
| 2.75 nM | h4D10.G4.H4(N56V Y100F)L2 (antibody, V domains shown) VH: QVQLVQSGAEVKKPGASVKVSCKASGYTFSSYVIHWVRQAPGQGLEWMGYFNPYNVGTNYNENFKGRVTMTADTSTSTVYMELSSLRSEDTAVYYCARYFYASGSLYFDYWGQGTTVTVSS VL: DIQMTQSPSTLSASVGDRVTITCSASSSVSYMHWYQQKPGKAPKPLIYEISKLASGVPSRFSGSGSGTEFTLTISSLQPDDAATYYCQQWNYPLITFGGGTKVEIK |
| 4.97 nM | h4D10.G4.H4(N56W Y100V)L2 (antibody, V domains shown) VH: QVQLVQSGAEVKKPGASVKVSCKASGYTFSSYVIHWVRQAPGQGLEWMGYFNPYNWGTNYNENFKGRVTMTADTSTSTVYMELSSLRSEDTAVYYCARYVYASGSLYFDYWGQGTTVTVSS VL: DIQMTQSPSTLSASVGDRVTITCSASSSVSYMHWYQQKPGKAPKPLIYEISKLASGVPSRFSGSGSGTEFTLTISSLQPDDAATYYCQQWNYPLITFGGGTKVEIK |
| 5.41 nM | h4D10.G4.H4(N56I Y100W)L2 (antibody, V domains shown) VH: QVQLVQSGAEVKKPGASVKVSCKASGYTFSSYVIHWVRQAPGQGLEWMGYFNPYNIGTNYNENFKGRVTMTADTSTSTVYMELSSLRSEDTAVYYCARYWYASGSLYFDYWGQGTTVTVSS VL: DIQMTQSPSTLSASVGDRVTITCSASSSVSYMHWYQQKPGKAPKPLIYEISKLASGVPSRFSGSGSGTEFTLTISSLQPDDAATYYCQQWNYPLITFGGGTKVEIK |
| 3.39 nM | h4D10.G4.H4(N56W Y100W)L2 (antibody, V domains shown) VH: QVQLVQSGAEVKKPGASVKVSCKASGYTFSSYVIHWVRQAPGQGLEWMGYFNPYNWGTNYNENFKGRVTMTADTSTSTVYMELSSLRSEDTAVYYCARYWYASGSLYFDYWGQGTTVTVSS VL: DIQMTQSPSTLSASVGDRVTITCSASSSVSYMHWYQQKPGKAPKPLIYEISKLASGVPSRFSGSGSGTEFTLTISSLQPDDAATYYCQQWNYPLITFGGGTKVEIK |
| 1.13 nM | h4D10.G4.H4(N56W Y100F)L2 (antibody, V domains shown) VH: QVQLVQSGAEVKKPGASVKVSCKASGYTFSSYVIHWVRQAPGQGLEWMGYFNPYNWGTNYNENFKGRVTMTADTSTSTVYMELSSLRSEDTAVYYCARYFYASGSLYFDYWGQGTTVTVSS VL: DIQMTQSPSTLSASVGDRVTITCSASSSVSYMHWYQQKPGKAPKPLIYEISKLASGVPSRFSGSGSGTEFTLTISSLQPDDAATYYCQQWNYPLITFGGGTKVEIK |
| 6.22 nM | h4D10.G4.H4(N56I Y100V)L2 (antibody, V domains shown) VH: QVQLVQSGAEVKKPGASVKVSCKASGYTFSSYVIHWVRQAPGQGLEWMGYFNPYNIGTNYNENFKGRVTMTADTSTSTVYMELSSLRSEDTAVYYCARYVYASGSLYFDYWGQGTTVTVSS VL: DIQMTQSPSTLSASVGDRVTITCSASSSVSYMHWYQQKPGKAPKPLIYEISKLASGVPSRFSGSGSGTEFTLTISSLQPDDAATYYCQQWNYPLITFGGGTKVEIK |

Target: T1, CEACAM1-his
Assay: BLI
Remark: another data set of the same source

| Binder | Kd |
| --- | --- |
| h4D10.G4.H0bL1 (antibody, V domains shown) VH: QVQLVQSGAEVKKPGASVKVSCKASGYTFSSYVIHWVRQAPGQGLEWMGYFNPYNNGTNYNENFKGRVTMTRDTSTSTVYMELSSLRSEDTAVYYCARYYYASGSLYFDYWGQGTTVTVSS VL: DIQLTQSPSFLSASVGDRVTITCSASSSVSYMHWYQQKPGKAPKPLIYEISKLASGVPSRFSGSGSGTEFTLTISSLQPEDAATYYCQQWNYPLITFGGGTKVEIK | 2.16 nM |
| h2C10.G4.H0aL0a (antibody, V domains shown) VH: QVQLVQSGAEVKKPGASVKVSCKASGFAFTNYLIEWVRQAPGQGLEWMGVLNPGSGATNYNEKFKGRVTMTRDTSISTAYMELSRLRSDDTAVYYCARGIYGGYFAMDYWGQGTLVTVSS VL: DIQMTQSPSSLSASVGDRVTITCRASQDITTYLNWYQQKPGKAPKLLIYYTSRLHSGVPSRFSGSGSGTDFTFTISSLQPEDIATYYCQQGNTLPRTFGQGTKVEIK | 2.15 nM |
| h2C10.G4.H0aL1 (antibody, V domains shown) VH: QVQLVQSGAEVKKPGASVKVSCKASGFAFTNYLIEWVRQAPGQGLEWMGVLNPGSGATNYNEKFKGRVTMTRDTSISTAYMELSRLRSDDTAVYYCARGIYGGYFAMDYWGQGTLVTVSS VL: DIQMTQSPSSLSASVGDRVTITCRASQDITTYLNWYQQKPGKAPKLLIYYTSRLHSGVPSRFSGSGSGTDFTLTISSLQPEDIATYYCQQGNTLPRTFGQGTKVEIK | 1.81 nM |
| h2C10.G4.H3L4 (antibody, V domains shown) VH: QVQLVQSGAEVKKPGASVKVSCKASGFAFTNYLIEWVRQAPGQGLEWMGVLNPGSGATNYNEKFKGRVTMTADTSISTAYMELSRLRSDDTAVYYCARGIYGGYFAMDYWGQGTLVTVSS VL: DIQMTQSPSSLSASVGDRVTITCRASQDITTYLNWYQQKPGGAPKLLIYYTSRLHSGVPSRFSGSGSGTDFTLTISSLQPEDIATYYCQQGNTLPRTFGGGTKLEIK | 2 nM |
| h2C10.G4.H0aL3 (antibody, V domains shown) VH: QVQLVQSGAEVKKPGASVKVSCKASGFAFTNYLIEWVRQAPGQGLEWMGVLNPGSGATNYNEKFKGRVTMTRDTSISTAYMELSRLRSDDTAVYYCARGIYGGYFAMDYWGQGTLVTVSS VL: DIQMTQSPSSLSASVGDRVTITCRASQDITTYLNWYQQKPGGAPKLLIYYTSRLHSGVPSRFSGSGSGTDYTLTISSLQPEDIATYYCQQGNTLPRTFGGGTKLEIK | 0.944 nM |
| h2C10.G4.H0aL0b (antibody, V domains shown) VH: QVQLVQSGAEVKKPGASVKVSCKASGFAFTNYLIEWVRQAPGQGLEWMGVLNPGSGATNYNEKFKGRVTMTRDTSISTAYMELSRLRSDDTAVYYCARGIYGGYFAMDYWGQGTLVTVSS VL: DIQMTQSPSSLSASVGDRVTITCRASQDITTYLNWYQQKPGKAPKLLIYYTSRLHSGVPSRFSGSGSGTDFTLTISSLQPEDFATYYCQQGNTLPRTFGQGTKVEIK | 2.23 nM |
| h2C10.G4.H3L2 (antibody, V domains shown) VH: QVQLVQSGAEVKKPGASVKVSCKASGFAFTNYLIEWVRQAPGQGLEWMGVLNPGSGATNYNEKFKGRVTMTADTSISTAYMELSRLRSDDTAVYYCARGIYGGYFAMDYWGQGTLVTVSS VL: DIQMTQSTSSLSASVGDRVTITCRASQDITTYLNWYQQKPGGAPKLLIYYTSRLHSGVPSRFSGSGSGTDYTLTISSLQPEDIATYYCQQGNTLPRTFGGGTKLEIK | 0.927 nM |
| h2C10.G4.H3L3 (antibody, V domains shown) VH: QVQLVQSGAEVKKPGASVKVSCKASGFAFTNYLIEWVRQAPGQGLEWMGVLNPGSGATNYNEKFKGRVTMTADTSISTAYMELSRLRSDDTAVYYCARGIYGGYFAMDYWGQGTLVTVSS VL: DIQMTQSPSSLSASVGDRVTITCRASQDITTYLNWYQQKPGGAPKLLIYYTSRLHSGVPSRFSGSGSGTDYTLTISSLQPEDIATYYCQQGNTLPRTFGGGTKLEIK | 1.13 nM |
| h2C10.G4.H3L1 (antibody, V domains shown) VH: QVQLVQSGAEVKKPGASVKVSCKASGFAFTNYLIEWVRQAPGQGLEWMGVLNPGSGATNYNEKFKGRVTMTADTSISTAYMELSRLRSDDTAVYYCARGIYGGYFAMDYWGQGTLVTVSS VL: DIQMTQSPSSLSASVGDRVTITCRASQDITTYLNWYQQKPGKAPKLLIYYTSRLHSGVPSRFSGSGSGTDFTLTISSLQPEDIATYYCQQGNTLPRTFGQGTKVEIK | 2.18 nM |

Second part, the binder after the results:

| Kd | Binder |
| --- | --- |
| 1.53 nM | h4D10.G4.H4L1 (antibody, V domains shown) VH: QVQLVQSGAEVKKPGASVKVSCKASGYTFSSYVIHWVRQAPGQGLEWMGYFNPYNNGTNYNENFKGRVTMTADTSTSTVYMELSSLRSEDTAVYYCARYYYASGSLYFDYWGQGTTVTVSS VL: DIQLTQSPSFLSASVGDRVTITCSASSSVSYMHWYQQKPGKAPKPLIYEISKLASGVPSRFSGSGSGTEFTLTISSLQPEDAATYYCQQWNYPLITFGGGTKVEIK |
| 2.28 nM | h4D10.G4.H0bL2 (antibody, V domains shown) VH: QVQLVQSGAEVKKPGASVKVSCKASGYTFSSYVIHWVRQAPGQGLEWMGYFNPYNNGTNYNENFKGRVTMTRDTSTSTVYMELSSLRSEDTAVYYCARYYYASGSLYFDYWGQGTTVTVSS VL: DIQMTQSPSTLSASVGDRVTITCSASSSVSYMHWYQQKPGKAPKPLIYEISKLASGVPSRFSGSGSGTEFTLTISSLQPDDAATYYCQQWNYPLITFGGGTKVEIK |
| 1.77 nM | h4D10.G4.H3L2 (antibody, V domains shown) VH: QVQLVQSGAEVKKPGASVKVSCKASGYTFSSYVIHWVRQAPGQGLEWMGYFNPYNNGTNYNENFKGRVTMTADTSISTAYMELSRLRSDDTAVYYCARYYYASGSLYFDYWGQGTLVTVSS VL: DIQMTQSPSTLSASVGDRVTITCSASSSVSYMHWYQQKPGKAPKPLIYEISKLASGVPSRFSGSGSGTEFTLTISSLQPDDAATYYCQQWNYPLITFGGGTKVEIK |
| 1.46 nM | h4D10.G4.H3L1 (antibody, V domains shown) VH: QVQLVQSGAEVKKPGASVKVSCKASGYTFSSYVIHWVRQAPGQGLEWMGYFNPYNNGTNYNENFKGRVTMTADTSISTAYMELSRLRSDDTAVYYCARYYYASGSLYFDYWGQGTLVTVSS VL: DIQLTQSPSFLSASVGDRVTITCSASSSVSYMHWYQQKPGKAPKPLIYEISKLASGVPSRFSGSGSGTEFTLTISSLQPEDAATYYCQQWNYPLITFGGGTKVEIK |

Reference: patent US20260297187 (published 2026)
